Test results from US20230357348A1 (AstraZeneca / MedImmune, published 2023).
Starred links: 1 amine or outer side, 2 acyl side, 3 side chain; linkers in the order of their positions; H or OH if unused. Non-standard residues stand in square brackets, D forms with d. Groups on a side chain read outwards from the residue. No end group written: not given here. *: point of attachment. C20 diacid = O=C(O)CCCCCCCCCCCCCCCCCCC(=O)*; C18 diacid = O=C(O)CCCCCCCCCCCCCCCCC(=O)*; γGlu = O=C(O)[C@H](CCC(=O)[*:2])N[*:1]; αMeF = C[C@](N)(Cc1ccccc1)C(=O)O; AEEA = NCCOCCOCC(=O)O; Aib = CC(C)(N)C(=O)O

B1: Peptide 512 (peptide)
peptide: H[Aib]QGT[αMeF]TSDVSK[αMeF]LDTK([AEEA-AEEA-γGlu-C18 diacid])RAQD[αMeF]VRWLLA[Aib]G-NH2
modifications: N-terminus assumed
SMILES: CC(C)C[C@H](NC(=O)[C@H](CC(C)C)NC(=O)[C@H](Cc1c[nH]c2ccccc12)NC(=O)[C@H](CCCNC(=N)N)NC(=O)[C@@H](NC(=O)[C@](C)(Cc1ccccc1)NC(=O)[C@H](CC(=O)O)NC(=O)[C@H](CCC(N)=O)NC(=O)[C@H](C)NC(=O)[C@H](CCCNC(=N)N)NC(=O)[C@H](CCCCNC(=O)COCCOCCNC(=O)COCCOCCNC(=O)CC[C@H](NC(=O)CCCCCCCCCCCCCCCCC(=O)O)C(=O)O)NC(=O)[C@@H](NC(=O)[C@H](CC(=O)O)NC(=O)[C@H](CC(C)C)NC(=O)[C@](C)(Cc1ccccc1)NC(=O)[C@H](CCCCN)NC(=O)[C@H](CO)NC(=O)[C@@H](NC(=O)[C@H](CC(=O)O)NC(=O)[C@H](CO)NC(=O)[C@@H](NC(=O)[C@](C)(Cc1ccccc1)NC(=O)[C@@H](NC(=O)CNC(=O)[C@H](CCC(N)=O)NC(=O)C(C)(C)NC(=O)[C@@H](N)Cc1c[nH]cn1)[C@@H](C)O)[C@@H](C)O)C(C)C)[C@@H](C)O)C(C)C)C(=O)N[C@@H](C)C(=O)NC(C)(C)C(=O)NCC(N)=O
B2: Peptide 513 (peptide)
peptide: H[Aib]QGT[αMeF]TSDVSK[αMeF]LDTK([AEEA-AEEA-γGlu-C18 diacid])RARD[αMeF]VQWLLA[Aib]G-NH2
modifications: N-terminus assumed
SMILES: CC(C)C[C@H](NC(=O)[C@H](CC(C)C)NC(=O)[C@H](Cc1c[nH]c2ccccc12)NC(=O)[C@H](CCC(N)=O)NC(=O)[C@@H](NC(=O)[C@](C)(Cc1ccccc1)NC(=O)[C@H](CC(=O)O)NC(=O)[C@H](CCCNC(=N)N)NC(=O)[C@H](C)NC(=O)[C@H](CCCNC(=N)N)NC(=O)[C@H](CCCCNC(=O)COCCOCCNC(=O)COCCOCCNC(=O)CC[C@H](NC(=O)CCCCCCCCCCCCCCCCC(=O)O)C(=O)O)NC(=O)[C@@H](NC(=O)[C@H](CC(=O)O)NC(=O)[C@H](CC(C)C)NC(=O)[C@](C)(Cc1ccccc1)NC(=O)[C@H](CCCCN)NC(=O)[C@H](CO)NC(=O)[C@@H](NC(=O)[C@H](CC(=O)O)NC(=O)[C@H](CO)NC(=O)[C@@H](NC(=O)[C@](C)(Cc1ccccc1)NC(=O)[C@@H](NC(=O)CNC(=O)[C@H](CCC(N)=O)NC(=O)C(C)(C)NC(=O)[C@@H](N)Cc1c[nH]cn1)[C@@H](C)O)[C@@H](C)O)C(C)C)[C@@H](C)O)C(C)C)C(=O)N[C@@H](C)C(=O)NC(C)(C)C(=O)NCC(N)=O
B3: Peptide 506 (peptide)
peptide: H[Aib]QGTFTSDVSK[αMeF]LDTK([AEEA-AEEA-γGlu-C20 diacid])RARDFVAWLLE[Aib]G-OH
modifications: N-terminus assumed
SMILES: CC(C)C[C@H](NC(=O)[C@H](Cc1c[nH]c2ccccc12)NC(=O)[C@H](C)NC(=O)[C@@H](NC(=O)[C@H](Cc1ccccc1)NC(=O)[C@H](CC(=O)O)NC(=O)[C@H](CCCNC(=N)N)NC(=O)[C@H](C)NC(=O)[C@H](CCCNC(=N)N)NC(=O)[C@H](CCCCNC(=O)COCCOCCNC(=O)COCCOCCNC(=O)CC[C@H](NC(=O)CCCCCCCCCCCCCCCCCCC(=O)O)C(=O)O)NC(=O)[C@@H](NC(=O)[C@H](CC(=O)O)NC(=O)[C@H](CC(C)C)NC(=O)[C@](C)(Cc1ccccc1)NC(=O)[C@H](CCCCN)NC(=O)[C@H](CO)NC(=O)[C@@H](NC(=O)[C@H](CC(=O)O)NC(=O)[C@H](CO)NC(=O)[C@@H](NC(=O)[C@H](Cc1ccccc1)NC(=O)[C@@H](NC(=O)CNC(=O)[C@H](CCC(N)=O)NC(=O)C(C)(C)NC(=O)[C@@H](N)Cc1c[nH]cn1)[C@@H](C)O)[C@@H](C)O)C(C)C)[C@@H](C)O)C(C)C)C(=O)N[C@@H](CC(C)C)C(=O)N[C@@H](CCC(=O)O)C(=O)NC(C)(C)C(=O)NCC(=O)O
B4: Peptide 514 (peptide)
peptide: H[Aib]QGTFTSDVSK[αMeF]LDTK([AEEA-AEEA-γGlu-C18 diacid])AARDFVQWLLE[Aib]G-NH2
modifications: N-terminus assumed
SMILES: CC(C)C[C@H](NC(=O)[C@H](Cc1c[nH]c2ccccc12)NC(=O)[C@H](CCC(N)=O)NC(=O)[C@@H](NC(=O)[C@H](Cc1ccccc1)NC(=O)[C@H](CC(=O)O)NC(=O)[C@H](CCCNC(=N)N)NC(=O)[C@H](C)NC(=O)[C@H](C)NC(=O)[C@H](CCCCNC(=O)COCCOCCNC(=O)COCCOCCNC(=O)CC[C@H](NC(=O)CCCCCCCCCCCCCCCCC(=O)O)C(=O)O)NC(=O)[C@@H](NC(=O)[C@H](CC(=O)O)NC(=O)[C@H](CC(C)C)NC(=O)[C@](C)(Cc1ccccc1)NC(=O)[C@H](CCCCN)NC(=O)[C@H](CO)NC(=O)[C@@H](NC(=O)[C@H](CC(=O)O)NC(=O)[C@H](CO)NC(=O)[C@@H](NC(=O)[C@H](Cc1ccccc1)NC(=O)[C@@H](NC(=O)CNC(=O)[C@H](CCC(N)=O)NC(=O)C(C)(C)NC(=O)[C@@H](N)Cc1c[nH]cn1)[C@@H](C)O)[C@@H](C)O)C(C)C)[C@@H](C)O)C(C)C)C(=O)N[C@@H](CC(C)C)C(=O)N[C@@H](CCC(=O)O)C(=O)NC(C)(C)C(=O)NCC(N)=O
B5: Peptide 511 (peptide)
peptide: H[Aib]QGTFTSDVSK[αMeF]LDTK([AEEA-AEEA-γGlu-C20 diacid])RARDFVRWLL[Aib]E-NH2
modifications: N-terminus assumed
SMILES: CC(C)C[C@H](NC(=O)[C@H](Cc1c[nH]c2ccccc12)NC(=O)[C@H](CCCNC(=N)N)NC(=O)[C@@H](NC(=O)[C@H](Cc1ccccc1)NC(=O)[C@H](CC(=O)O)NC(=O)[C@H](CCCNC(=N)N)NC(=O)[C@H](C)NC(=O)[C@H](CCCNC(=N)N)NC(=O)[C@H](CCCCNC(=O)COCCOCCNC(=O)COCCOCCNC(=O)CC[C@H](NC(=O)CCCCCCCCCCCCCCCCCCC(=O)O)C(=O)O)NC(=O)[C@@H](NC(=O)[C@H](CC(=O)O)NC(=O)[C@H](CC(C)C)NC(=O)[C@](C)(Cc1ccccc1)NC(=O)[C@H](CCCCN)NC(=O)[C@H](CO)NC(=O)[C@@H](NC(=O)[C@H](CC(=O)O)NC(=O)[C@H](CO)NC(=O)[C@@H](NC(=O)[C@H](Cc1ccccc1)NC(=O)[C@@H](NC(=O)CNC(=O)[C@H](CCC(N)=O)NC(=O)C(C)(C)NC(=O)[C@@H](N)Cc1c[nH]cn1)[C@@H](C)O)[C@@H](C)O)C(C)C)[C@@H](C)O)C(C)C)C(=O)N[C@@H](CC(C)C)C(=O)NC(C)(C)C(=O)N[C@@H](CCC(=O)O)C(N)=O
B6: Peptide 510 (peptide)
peptide: H[Aib]QGTFTSDVSK[αMeF]LDTK([AEEA-AEEA-γGlu-C20 diacid])RARDFVRWLL[Aib]E-OH
modifications: N-terminus assumed
SMILES: CC(C)C[C@H](NC(=O)[C@H](Cc1c[nH]c2ccccc12)NC(=O)[C@H](CCCNC(=N)N)NC(=O)[C@@H](NC(=O)[C@H](Cc1ccccc1)NC(=O)[C@H](CC(=O)O)NC(=O)[C@H](CCCNC(=N)N)NC(=O)[C@H](C)NC(=O)[C@H](CCCNC(=N)N)NC(=O)[C@H](CCCCNC(=O)COCCOCCNC(=O)COCCOCCNC(=O)CC[C@H](NC(=O)CCCCCCCCCCCCCCCCCCC(=O)O)C(=O)O)NC(=O)[C@@H](NC(=O)[C@H](CC(=O)O)NC(=O)[C@H](CC(C)C)NC(=O)[C@](C)(Cc1ccccc1)NC(=O)[C@H](CCCCN)NC(=O)[C@H](CO)NC(=O)[C@@H](NC(=O)[C@H](CC(=O)O)NC(=O)[C@H](CO)NC(=O)[C@@H](NC(=O)[C@H](Cc1ccccc1)NC(=O)[C@@H](NC(=O)CNC(=O)[C@H](CCC(N)=O)NC(=O)C(C)(C)NC(=O)[C@@H](N)Cc1c[nH]cn1)[C@@H](C)O)[C@@H](C)O)C(C)C)[C@@H](C)O)C(C)C)C(=O)N[C@@H](CC(C)C)C(=O)NC(C)(C)C(=O)N[C@@H](CCC(=O)O)C(=O)O
B7: Peptide 508 (peptide)
peptide: H[Aib]QGTFTSDVSK[αMeF]LESK([AEEA-AEEA-γGlu-C20 diacid])RAQDFVRWLVE[Aib]G-NH2
modifications: N-terminus assumed
SMILES: CC(C)C[C@H](NC(=O)[C@H](Cc1c[nH]c2ccccc12)NC(=O)[C@H](CCCNC(=N)N)NC(=O)[C@@H](NC(=O)[C@H](Cc1ccccc1)NC(=O)[C@H](CC(=O)O)NC(=O)[C@H](CCC(N)=O)NC(=O)[C@H](C)NC(=O)[C@H](CCCNC(=N)N)NC(=O)[C@H](CCCCNC(=O)COCCOCCNC(=O)COCCOCCNC(=O)CC[C@H](NC(=O)CCCCCCCCCCCCCCCCCCC(=O)O)C(=O)O)NC(=O)[C@H](CO)NC(=O)[C@H](CCC(=O)O)NC(=O)[C@H](CC(C)C)NC(=O)[C@](C)(Cc1ccccc1)NC(=O)[C@H](CCCCN)NC(=O)[C@H](CO)NC(=O)[C@@H](NC(=O)[C@H](CC(=O)O)NC(=O)[C@H](CO)NC(=O)[C@@H](NC(=O)[C@H](Cc1ccccc1)NC(=O)[C@@H](NC(=O)CNC(=O)[C@H](CCC(N)=O)NC(=O)C(C)(C)NC(=O)[C@@H](N)Cc1c[nH]cn1)[C@@H](C)O)[C@@H](C)O)C(C)C)C(C)C)C(=O)N[C@H](C(=O)N[C@@H](CCC(=O)O)C(=O)NC(C)(C)C(=O)NCC(N)=O)C(C)C

molecular target: human GLP-1 receptor (hGLP-1R) (human, UniProt P43220 24-463); test: cell-based or functional assay

hGLP-1R EC50 (pM)	Binder
159 pM	B1
93.8 pM	B2
162 pM	B3
52.9 pM	H[Aib]QGTFTSDVSK[αMeF]LDTK([AEEA-AEEA-γGlu-C20 diacid])RARDFVAWLLE[Aib]G-NH2 [Peptide 507]
76.7 pM	B4
118 pM	B5
176 pM	B6
67.9 pM	B7

molecular target: human glucagon receptor (hGCGR) (human, UniProt P47871 26-477); test: cell-based or functional assay
Sequence (P47871 26-477): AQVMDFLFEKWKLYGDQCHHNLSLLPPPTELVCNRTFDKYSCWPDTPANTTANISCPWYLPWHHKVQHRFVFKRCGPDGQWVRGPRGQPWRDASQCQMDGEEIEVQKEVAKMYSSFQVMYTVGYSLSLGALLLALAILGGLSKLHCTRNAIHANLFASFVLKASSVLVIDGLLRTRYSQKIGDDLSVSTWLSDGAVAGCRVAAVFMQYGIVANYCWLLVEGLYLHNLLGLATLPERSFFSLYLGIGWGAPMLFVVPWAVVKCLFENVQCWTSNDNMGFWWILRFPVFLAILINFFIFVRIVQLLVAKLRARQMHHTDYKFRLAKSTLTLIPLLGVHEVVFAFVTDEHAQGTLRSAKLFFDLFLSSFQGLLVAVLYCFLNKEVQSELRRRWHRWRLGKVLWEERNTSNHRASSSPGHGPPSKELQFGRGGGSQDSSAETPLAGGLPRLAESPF

hGluc-R EC50 (pM)	Binder
2310 pM	B1
1340 pM	B2
149 pM	B3
86.6 pM	H[Aib]QGTFTSDVSK[αMeF]LDTK([AEEA-AEEA-γGlu-C20 diacid])RARDFVAWLLE[Aib]G-NH2 [Peptide 507]
1370 pM	B4
140 pM	B5
118 pM	B6
2800 pM	B7
